This passage reports Kd and stoichiometry N results from PMC8093215.

The target in this test is human DNMT1 BAH1 domain (residues 728-900), Y775A (human) (UniProt P26358). Briefly: ITC; 1 mM H4K20me peptide titrated over 0.1 mM hDNMT1 BAH1 or BAH2 domain; 25 mM Tris-HCl pH 7.5, 100 mM NaCl, 2 mM DTT; 5 °C; single-site binding mode.
human DNMT1 BAH1 domain (residues 728-900), Y775A (human), sequence (P26358 728-900 Y775A): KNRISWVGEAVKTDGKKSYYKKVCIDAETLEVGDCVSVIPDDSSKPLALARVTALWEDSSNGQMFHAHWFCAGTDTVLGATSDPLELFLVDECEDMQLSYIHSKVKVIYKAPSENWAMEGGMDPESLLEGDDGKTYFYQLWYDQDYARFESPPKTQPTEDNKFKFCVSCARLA

Regarding “H4(14-25)K20me3 peptide (from UniProt P62805 15-26)”, the Kd was 361 µM and the stoichiometry N was found to be 1.
